Laboratory results: paper PMC12109719, “Synergistic Signal Amplification via Weak Value Amplification Effect and Sandwich Structure for Highly Sensitive and Specific Real-Time Detection of CA125”

B1: CA125-2 aptamer (ssDNA)
DNA: TTATCGTACGACAGTCATCCTACAC
modifications: 5'-NH2-C6
B2: CA125-3 aptamer (ssDNA)
DNA: TATCAATTACTTACCCTAGTGGTGTGATGTCGTATGGATG
modifications: 5'-NH2-C6
B3: CA125-1 aptamer (ssDNA)
DNA: CTCACTACTATAGGGATAGGGAGACAAGAATAAACGCTCAA
modifications: 5'-NH2

How the values were obtained:
human IgE (human) = assay: imaging weak measurement, aptamer-antibody sandwich; conditions: 25 ng/mL; CA125 antibody (CA125 gave 665.83 a.u.); 5'-NH2; PBS+ (10 mM PBS, 5 mM MgCl2) as reference channel; aptamer 2 uM immobilized on polydopamine-coated prism, 2% blocking solution; readout at 55 min; pH and …
human IgG (human) = assay: as above; conditions: 25 ng/mL; CA125 antibody (CA125 gave 665.83 a.u.); 5'-NH2; PBS+ (10 mM PBS, 5 mM MgCl2) as reference channel; aptamer 2 uM immobilized on polydopamine-coated prism, 2% blocking solution; readout at 55 min; pH and …
[1] = molecular target: CA125 (carbohydrate antigen 125) (UniProt Q8WXI7 1-14451); assay: imaging weak measurement, aptamer-antibody sandwich; CA125 50 U/mL; CA125 antibody; PBS+ (10 mM PBS, 5 mM MgCl2) as reference channel; aptamer 2 uM immobilized on polydopamine-coated prism, 2% blocking solution; readout at 55 min; pH and temperature not stated; conditions: protein: commercial

Molecule	binding signal (human IgE (human))	binding signal (human IgG (human))	binding signal [1]
CTCACTACTATAGGGATAGGGAGACAAGAATAAACGCTCAA [CA125-1 aptamer]	< 35 a.u.	< 35 a.u.	
B1			695 a.u.
B2			647 a.u.
B3			735 a.u.
